# T1: placental growth factor (PLGF) (UniProt P49763-2 21-149, limits assumed)
# T1 construct: also called P1GF
# T1 sequence (looked up): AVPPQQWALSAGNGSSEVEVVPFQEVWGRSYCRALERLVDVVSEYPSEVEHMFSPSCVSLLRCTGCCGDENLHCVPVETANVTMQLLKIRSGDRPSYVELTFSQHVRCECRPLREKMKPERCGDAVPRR
# B1: DVD476 (bispecific antibody, human IgG1, kappa)
# heavy: not shown
# light: DIQMTQSPSSLSASVGDRVTITCSASQDISNYLNWYQQKPGKAPKVLIYFTSSLHSGVPSRFSGSGSGTDFTLTISSLQPEDFATYYCQQYSTVPWTFGQGTKVEIKRTVAAPDIQMTQSPSSLSASVGDRVTITCRASQDVSTAVAWYQQKPGKAPKLLIYSASFLYSGVPSRFSGSGSGTDFTLTISSLQPEDFATTYYCQQSYTGTVTFGQGTKVEIKRTVAAPSVFIFPPSDEQLKSGTASVVCLLNNFYPREAKVQWKVDNALQSGNSQESVTEQDSKDSTYSLSSTLTLSKADYEKHKVYACEVTHQGLSSPVTKSFNRGEC
# notes: DVD-Ig, HC long / LC short; DLL4 domain C-terminal; also called VEGF / DLL4 DVD-Ig; DVD476H
# B2: DVD474 (VEGF (AB071) N-terminal / DLL4 (seq. 1) C-terminal DVD-Ig, long HC linker, long LC linker) (bispecific antibody, human IgG1, kappa)
# heavy: not shown
# light: DIQMTQSPSSLSASVGDRVTITCRASQVIRRSLAWYQQKPGKAPKLLIYAASNLASGVPSRFSGSGSGTDFTLTISSLQPEDFATYYCQQSNTSPLTFGQGTKVEIKRTVAAPSVFIFPPDIQMTQSPSSLSASVGDRVTITCRASQDVSTAVAWYQQKPGKAPKLLIYSASFLYSGVPSRFSGSGSGTDFTLTISSLQPEDFATTYYCQQSYTGTVTFGQGTKVEIKRTVAAPSVFIFPPSDEQLKSGTASVVCLLNNFYPREAKVQWKVDNALQSGNSQESVTEQDSKDSTYSLSSTLTLSKADYEKHKVYACEVTHQGLSSPVTKSFNRGEC
# notes: also called DVD474H/DVD474L
# B3: DVD486 (bispecific antibody, human IgG1, kappa)
# heavy: not shown
# light: B2 light
# notes: DVD-Ig, HC short / LC long; DLL4 domain C-terminal; also called VEGF / DLL4 DVD-Ig; DVD486H
# B4: DVD474 (bispecific antibody, human IgG1, kappa)
# heavy: not shown
# light: B2 light
# notes: DVD-Ig, HC long / LC long; DLL4 domain C-terminal; also called VEGF / DLL4 DVD-Ig; DVD474H
# B5: DVD575 (bispecific antibody, human IgG1, kappa)
# heavy: not shown
# light: DIVLTQSPDSLAVSLGERVTMNCKSSQSLLNSGMRKSFLAWYQQKPGQSPKLLIYWASTRESGVPDRFTGSGSGTDFTLTISSVQAEDVAVYYCKQSYHLFTFGSGTKLEIKRTVAAPDIQMTQSPSSLSASVGDRVTITCRASQVIRRSLAWYQQKPGKAPKLLIYAASNLASGVPSRFSGSGSGTDFTLTISSLQPEDFATYYCQQSNTSPLTFGQGTKVEIKRTVAAPSVFIFPPSDEQLKSGTASVVCLLNNFYPREAKVQWKVDNALQSGNSQESVTEQDSKDSTYSLSSTLTLSKADYEKHKVYACEVTHQGLSSPVTKSFNRGEC
# notes: DVD-Ig, N-term PlGF (AB047) / C-term VEGF (AB071); also called DVD575H; DVD575L
# B6: DVD591 (bispecific antibody, human IgG1, kappa)
# heavy: not shown
# light: B5 light
# notes: DVD-Ig, N-term PlGF (AB047) / C-term VEGF (AB071); also called DVD591VH; DVD591VL
# B7: DVD583 (bispecific antibody, human IgG1, kappa)
# heavy: not shown
# light: DIVLTQSPDSLAVSLGERVTMNCKSSQSLLNSGMRKSFLAWYQQKPGQSPKLLIYWASTRESGVPDRFTGSGSGTDFTLTISSVQAEDVAVYYCKQSYHLFTFGSGTKLEIKRTVAAPSVFIFPPDIQMTQSPSSLSASVGDRVTITCRASQVIRRSLAWYQQKPGKAPKLLIYAASNLASGVPSRFSGSGSGTDFTLTISSLQPEDFATYYCQQSNTSPLTFGQGTKVEIKRTVAAPSVFIFPPSDEQLKSGTASVVCLLNNFYPREAKVQWKVDNALQSGNSQESVTEQDSKDSTYSLSSTLTLSKADYEKHKVYACEVTHQGLSSPVTKSFNRGEC
# notes: DVD-Ig, N-term PlGF (AB047) / C-term VEGF (AB071); also called DVD583H; DVD583L
# B8: DVD599 (bispecific antibody, human IgG1, kappa)
# heavy: not shown
# light: B7 light
# notes: DVD-Ig, N-term PlGF (AB047) / C-term VEGF (AB071); also called DVD599VH; DVD599VL
# B9: DVD471 (bispecific antibody, human IgG1, kappa, L234A L235A)
# heavy: not shown
# light: DIQMTQSPSSLSASVGDRVTITCRASQDVSTAVAWYQQKPGKAPKLLIYSASFLYSGVPSRFSGSGSGTDFTLTISSLQPEDFATTYYCQQSYTGTVTFGQGTKVEIKRTVAAPSVFIFPPDIQMTQSPSSLSASVGDRVTITCRASQDVSTAVAWYQQKPGKAPKLLIYSASFLYSGVPSRFSGSGSGTDFTLTISSLQPEDFATYYCQQSYTTPPTFGQGTKVEIKRTVAAPSVFIFPPSDEQLKSGTASVVCLLNNFYPREAKVQWKVDNALQSGNSQESVTEQDSKDSTYSLSSTLTLSKADYEKHKVYACEVTHQGLSSPVTKSFNRGEC
# notes: DVD-Ig, HC long / LC long; DLL4 domain N-terminal; also called DLL4 / VEGF DVD-Ig; DVD471H
# B10: DVD581 (bispecific antibody, human IgG1, kappa)
# heavy: not shown
# light: DIVLTQSPDSLAVSLGERVTMNCKSSQSLLNSGMRKSFLAWYQQKPGQSPKLLIYWASTRESGVPDRFTGSGSGTDFTLTISSVQAEDVAVYYCKQSYHLFTFGSGTKLEIKRTVAAPSVFIFPPDIQMTQSPSSLSASVGDRVTITCRASQDVSTAVAWYQQKPGKAPKLLIYSASFLYSGVPSRFSGSGSGTDFTLTISSLQPEDFATYYCQQSYTTPPTFGQGTKVEIKRTVAAPSVFIFPPSDEQLKSGTASVVCLLNNFYPREAKVQWKVDNALQSGNSQESVTEQDSKDSTYSLSSTLTLSKADYEKHKVYACEVTHQGLSSPVTKSFNRGEC
# notes: also called DVD581H; DVD581L
# B11: DVD597 (bispecific antibody, human IgG1, kappa)
# heavy: not shown
# light: B10 light
# notes: also called DVD597VH; DVD597VL
# B12: DVD589 (bispecific antibody, human IgG1, kappa)
# heavy: not shown
# light: DIVLTQSPDSLAVSLGERVTMNCKSSQSLLNSGMRKSFLAWYQQKPGQSPKLLIYWASTRESGVPDRFTGSGSGTDFTLTISSVQAEDVAVYYCKQSYHLFTFGSGTKLEIKRTVAAPDIQMTQSPSSLSASVGDRVTITCRASQDVSTAVAWYQQKPGKAPKLLIYSASFLYSGVPSRFSGSGSGTDFTLTISSLQPEDFATYYCQQSYTTPPTFGQGTKVEIKRTVAAPSVFIFPPSDEQLKSGTASVVCLLNNFYPREAKVQWKVDNALQSGNSQESVTEQDSKDSTYSLSSTLTLSKADYEKHKVYACEVTHQGLSSPVTKSFNRGEC
# notes: also called DVD589VH; DVD589VL
# B13: DVD470 (bispecific antibody, human IgG1, kappa)
# heavy: not shown
# light: DIQMTQSPSSLSASVGDRVTITCSASQDISNYLNWYQQKPGKAPKVLIYFTSSLHSGVPSRFSGSGSGTDFTLTISSLQPEDFATYYCQQYSTVPWTFGQGTKVEIKRTVAAPSVFIFPPDIQMTQSPSSLSASVGDRVTITCRASQDVSTAVAWYQQKPGKAPKLLIYSASFLYSGVPSRFSGSGSGTDFTLTISSLQPEDFATTYYCQQSYTGTVTFGQGTKVEIKRTVAAPSVFIFPPSDEQLKSGTASVVCLLNNFYPREAKVQWKVDNALQSGNSQESVTEQDSKDSTYSLSSTLTLSKADYEKHKVYACEVTHQGLSSPVTKSFNRGEC
# notes: DVD-Ig, HC long / LC long; DLL4 domain C-terminal; also called VEGF / DLL4 DVD-Ig; DVD470H
# B14: DVD482 (bispecific antibody, human IgG1, kappa)
# heavy: not shown
# light: B13 light
# notes: DVD-Ig, HC short / LC long; DLL4 domain C-terminal; also called VEGF / DLL4 DVD-Ig; DVD482H
# B15: DVD485 (bispecific antibody, human IgG1, kappa)
# heavy: not shown
# light: DIQMTQSPSSLSASVGDRVTITCRASQDVSTAVAWYQQKPGKAPKLLIYSASFLYSGVPSRFSGSGSGTDFTLTISSLQPEDFATTYYCQQSYTGTVTFGQGTKVEIKRTVAAPSVFIFPPDIQMTQSPSSLSASVGDRVTITCRASQVIRRSLAWYQQKPGKAPKLLIYAASNLASGVPSRFSGSGSGTDFTLTISSLQPEDFATYYCQQSNTSPLTFGQGTKVEIKRTVAAPSVFIFPPSDEQLKSGTASVVCLLNNFYPREAKVQWKVDNALQSGNSQESVTEQDSKDSTYSLSSTLTLSKADYEKHKVYACEVTHQGLSSPVTKSFNRGEC
# notes: DVD-Ig, HC short / LC long; DLL4 domain N-terminal; also called DLL4 / VEGF DVD-Ig; DVD485H
# Key:
# biotinylated VEGF = biotinylated VEGF (UniProt P15692-4 27-191, limits assumed, biotinylated); experiment: VEGF capture ELISA, DVD-Ig captured by anti-human Fc, biotinylated VEGF
# [1] = target: T2, biotin-labeled human DLL4 extracellular domain (human, UniProt Q9NR61 27-529, biotin-labeled); experiment: DLL4 capture ELISA, DVD-Ig captured by anti-human Fc, biotin-labeled human DLL4 ECD
# T2 construct: extracellular domain
# [2] = target: T3, human DLL4 extracellular domain (human, UniProt Q9NR61 27-529, biotin label in the Notch-1 competition ELISA (sites not given)); experiment: cell-based or functional assay
# [3] = target: T4, human DLL4 on 293G-human DLL4 cells (human, UniProt Q9NR61 27-685); experiment: FACS: inhibition of Notch1 binding to 293G-human DLL4 cells (competitor Notch1)
# T4 construct: whole, on cells; no method paragraph describes this FACS assay
# [4] = target: T3, human DLL4 extracellular domain; experiment: competition ELISA: 14 nM biotin-labelled human DLL4 ECD pre-mixed with DVD-Ig, then on coated human Notch-1 (competitor Notch-1)
# [5] = target: T1, placental growth factor (PLGF); experiment: ligand-receptor binding competition assay, PlGF binding to VEGFR1; N-terminal VD
Binder,EC50 (biotinylated VEGF),EC50 [1],IC50 [5],also measured
B1,0.22 nM,0.21 nM,,
B2,,,,"DVD-Ig Inhibition of sFlt1 (IC50, nM) [2]: 0.93 nM; IC50 [3]: 27.5 nM; IC50 [4]: 2.3 nM"
B3,0.53 nM,0.16 nM,,
B4,1.65 nM,0.14 nM,,
B5,,,2.9 nM,
B6,,,3.23 nM,
B7,,,3.25 nM,
B8,,,3.19 nM,
B9,0.56 nM,0.17 nM,,
B10,,,3.5 nM,
B11,,,2.94 nM,
B12,,,2.87 nM,
B13,0.27 nM,0.16 nM,,
B14,0.22 nM,0.17 nM,,
B15,2.5 nM,5.45 nM,,
